Tests used:
[1] = target: T1, human FcRn/b2M (human, UniProt P61769 21-119, biotinylated); assay: SPR off-rate pH 6.0
T1 construct: bought recombinant biotinylated protein (ACRO FCM-H82W4 or Immunitrack ITF01); also called hFcRn; hFcRn/hb2M

[2] = target: T1, human FcRn/b2M; assay: SPR pH 6.0

T1 sequence (chain, as listed by the source limits assumed, chain 1 of 2): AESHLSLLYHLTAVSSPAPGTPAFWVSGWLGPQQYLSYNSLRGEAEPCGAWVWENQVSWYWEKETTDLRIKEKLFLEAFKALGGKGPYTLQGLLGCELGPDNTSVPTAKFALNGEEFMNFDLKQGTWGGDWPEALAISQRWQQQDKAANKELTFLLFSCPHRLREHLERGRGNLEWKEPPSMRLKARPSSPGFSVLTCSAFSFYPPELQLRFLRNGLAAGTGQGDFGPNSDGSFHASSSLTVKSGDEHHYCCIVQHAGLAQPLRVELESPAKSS
T1 sequence (P61769 21-119 limits assumed, chain 2 of 2): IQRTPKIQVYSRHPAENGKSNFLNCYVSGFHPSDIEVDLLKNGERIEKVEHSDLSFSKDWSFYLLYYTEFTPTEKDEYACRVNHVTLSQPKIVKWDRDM

Binder | binding result [1] | koff [2]
T026301049 (VHH, name in Kabat numbering, tagless) VHH: EVQLVESGGGVVQPGGSLRLSCAASTFTFSEYDMYWVRQAPGKGLEWVSAISSGGGSTDYADSVKGRFTISRDNSKNTLYLQMNSLRPEDTALYYCAADTLYTDLTWYSYWGQGTLVTVSS | no binding | 
T026301053 (VHH, name in Kabat numbering, tagless) VHH: EVQLVESGGGVVQPGGSLRLSCAASTFTFSEYDMYWVRQAPGKGLEWVSAISSGGGSTDYADSVKGRFTISRDNSKNTLYLQMNSLRPEDTALYYCAADTLYTSLTKYSYWGQGTLVTVSS | no binding | 
T026301055 (VHH, name in Kabat numbering, tagless) VHH: EVQLVESGGGVVQPGGSLRLSCAASTFTFSSYDMYWVRQAPGKGLEWVSAISSGGGSTDYADSVKGRFTISRDNSKNTLYLQMNSLRPEDTALYYCAADTLYTSLTKYSYWGQGTLVTVSS | no binding | 
T026301056 (VHH, name in Kabat numbering, tagless) VHH: EVQLVESGGGVVQPGGSLRLSCAASTFTFSEYDMYWVRQAPGKGLEWVSAISQGGGSTDYADSVKGRFTISRDNSKNTLYLQMNSLRPEDTALYYCAADTLYTDLTKYSYWGQGTLVTVSS | no binding | 
T026301058 (VHH, name in Kabat numbering, tagless) VHH: EVQLVESGGGVVQPGGSLRLSCAASTFTFSEYAMYWVRQAPGKGLEWVSAISQGGGSTDYADSVKGRFTISRDNSKNTLYLQMNSLRPEDTALYYCAADTLYTDLTKYSYWGQGTLVTVSS | no binding | 
T026301062 (VHH, name in Kabat numbering, tagless) VHH: EVQLVESGGGVVQPGGSLRLSCAASTFTFSSYDMYWVRQAPGKGLEWVSAISSGGGSTDYADSVKGRFTISRDNSKNTLYLQMNSLRPEDTALYYCAADTLYTDLTWYSYWGQGTLVTVSS | no binding | 
T026301065 (VHH, name in Kabat numbering, tagless) VHH: EVQLVESGGGVVQPGGSLRLSCAASTFTFSEYDMYWVRQAPGKGLEWVSAISQGGGSTDYADSVKGRFTISRDNSKNTLYLQMNSLRPEDTALYYCAADTLYTDLTWYSYWGQGTLVTVSS | no binding | 
T026301066 (VHH, name in Kabat numbering, tagless) VHH: EVQLVESGGGVVQPGGSLRLSCAASGFTFSEYAMYWVRQAPGKGLEWVSAISSGGGSTDYADSVKGRFTISRDNSKNTLYLQMNSLRPEDTALYYCAADTLYTDLTKYSYWGQGTLVTVSS | no binding | 
T026301068 (VHH, name in Kabat numbering, tagless) VHH: EVQLVESGGGVVQPGGSLRLSCAASGFTFSSYDMYWVRQAPGKGLEWVSAISQGGGSTDYADSVKGRFTISRDNSKNTLYLQMNSLRPEDTALYYCAADTLYTDLTKYSYWGQGTLVTVSS | no binding | 
T026301077 (VHH, name in Kabat numbering, tagless) VHH: EVQLVESGGGVVQPGGSLRLSCAASTFTFSEYDMYWVRQAPGKGLEWVSAISQGGGSTDYADSVKGRFTISRDNSKNTLYLQMNSLRPEDTALYYCAADTLYTSLTKYSYWGQGTLVTVSS | no binding | 
T026301092 (VHH, name in Kabat numbering, tagless) VHH: EVQLVESGGGVVQPGGSLRLSCAASGFTFSSYDMYWVRQAPGKGLEWVSAISSGGGSTDYADSVKGRFTISRDNSKNTLYLQMNSLRPEDTALYYCAADTLYTDLTKYSYWGQGTLVTVSS | no binding | 
T026301093 (VHH, name in Kabat numbering, tagless) VHH: EVQLVESGGGVVQPGGSLRLSCAASTFTFSSYDMYWVRQAPGKGLEWVSAISSGGGSTDYADSVKGRFTISRDNSKNTLYLQMNSLRPEDTALYYCAADTLYTSLTSYSYWGQGTLVTVSS | no binding | 
T026301095 (VHH, name in Kabat numbering, tagless) VHH: EVQLVESGGGVVQPGGSLRLSCAASGFTFSEYDMYWVRQAPGKGLEWVSAISSGGGSTDYADSVKGRFTISRDNSKNTLYLQMNSLRPEDTALYYCAADTLYTDLTSYSYWGQGTLVTVSS | no binding | 
T026301101 (VHH, name in Kabat numbering, tagless) VHH: EVQLVESGGGVVQPGGSLRLSCAASTFTFSSYAMYWVRQAPGKGLEWVSAISSGGGSTDYADSVKGRFTISRDNSKNTLYLQMNSLRPEDTALYYCAADTLYTDLTKYSYWGQGTLVTVSS | no binding | 
T026301104 (VHH, name in Kabat numbering, tagless) VHH: EVQLVESGGGVVQPGGSLRLSCAASGFTFSEYAMYWVRQAPGKGLEWVSAISQGGGSTDYADSVKGRFTISRDNSKNTLYLQMNSLRPEDTALYYCAADTLYTDLTKYSYWGQGTLVTVSS | no binding | 
T026301106 (VHH, name in Kabat numbering, tagless) VHH: EVQLVESGGGVVQPGGSLRLSCAASTFTFSSYDMYWVRQAPGKGLEWVSAISQGGGSTDYADSVKGRFTISRDNSKNTLYLQMNSLRPEDTALYYCAADTLYTDLTSYSYWGQGTLVTVSS | no binding | 
T026301108 (VHH, name in Kabat numbering, tagless) VHH: EVQLVESGGGVVQPGGSLRLSCAASTFTFSEYAMYWVRQAPGKGLEWVSAISQGGGSTDYADSVKGRFTISRDNSKNTLYLQMNSLRPEDTALYYCAADTLYTDLTSYSYWGQGTLVTVSS | no binding | 
T026301114 (VHH, name in Kabat numbering, tagless) VHH: EVQLVESGGGVVQPGGSLRLSCAASTFTFSEYAMYWVRQAPGKGLEWVSAISSGGGSTDYADSVKGRFTISRDNSKNTLYLQMNSLRPEDTALYYCAADTLYTDLTKYSYWGQGTLVTVSS | no binding | 
T026301115 (VHH, name in Kabat numbering, tagless) VHH: EVQLVESGGGVVQPGGSLRLSCAASTFTFSSYDMYWVRQAPGKGLEWVSAISSGGGSTDYADSVKGRFTISRDNSKNTLYLQMNSLRPEDTALYYCAADTLYTDLTKYSYWGQGTLVTVSS | no binding | 
T026301116 (VHH, name in Kabat numbering, tagless) VHH: EVQLVESGGGVVQPGGSLRLSCAASGFTFSEYDMYWVRQAPGKGLEWVSAISSGGGSTDYADSVKGRFTISRDNSKNTLYLQMNSLRPEDTALYYCAADTLYTDLTKYSYWGQGTLVTVSS | no binding | 
T026301118 (VHH, name in Kabat numbering, tagless) VHH: EVQLVESGGGVVQPGGSLRLSCAASGFTFSSYDMYWVRQAPGKGLEWVSAISSGGGSTDYADSVKGRFTISRDNSKNTLYLQMNSLRPEDTALYYCAADTLYTDLTSYSYWGQGTLVTVSS | no binding | 
T026301120 (VHH, name in Kabat numbering, tagless) VHH: EVQLVESGGGVVQPGGSLRLSCAASTFTFSEYDMYWVRQAPGKGLEWVSAISQGGGSTDYADSVKGRFTISRDNSKNTLYLQMNSLRPEDTALYYCAADTLYTDLTSYSYWGQGTLVTVSS | no binding | 
T026301127 (VHH, name in Kabat numbering, tagless) VHH: EVQLVESGGGVVQPGGSLRLSCAASTFTFSEYDMYWVRQAPGKGLEWVSAISSGGGSTDYADSVKGRFTISRDNSKNTLYLQMNSLRPEDTALYYCAADTLYTSLTSYSYWGQGTLVTVSS |  | 0.0095 s⁻¹
T026301128 (VHH, name in Kabat numbering, tagless) VHH: EVQLVESGGGVVQPGGSLRLSCAASGFTFSSYAMYWVRQAPGKGLEWVSAISQGGGSTDYADSVKGRFTISRDNSKNTLYLQMNSLRPEDTALYYCAADTLYTDLTKYSYWGQGTLVTVSS |  | 0.032 s⁻¹

Reference: US20240132624A1 (Ablynx, published 2024)
